Tests used:
[1] = target: T1, human IGF2^1-67 (mature insulin-like growth factor 2) (human, UniProt P01344 25-91, biotinylated (site not stated) where immobilised on the chip (Tables 1-4)); experiment: SPR kinetic, biotin-IGF2 on chip, pH 7.4
T1 construct: mature; also called mature IGF2; biotinylated IGF2
Description: (§1) Surface plasmon resonance (SPR) binding analysis of recombinant M6P/IGF2R domain 11 mutants interaction with IGF2. Kon indicates association (on) rate; koff, dissociation (off) rate; RU, response units. Binding to IGF2 assessed with BIAcore T200 using purified biotinylated IGF2 and IGF1 on a streptavidin biosensor chip. Recombinant proteins were expressed either in E. coli and/or P. pastoris. All the mutants in the FG and CD loops are on the domain 11^AB5 background for the AB loop unless otherwise stated. All experiments were carried out at 25° C. in HBS-EP buffer (pH 7.4), were repeated 2-5 times on two independent BIAcore chips. nd=not determined. Data for KD expressed as mean of each experiment, and means of kon and koff are shown.
(§2) Final kinetic analysis of mutants by SPR was conducted using a Biacore T200 biosensor at 25° C. in either HBS-EP (10 mM HEPES pH 7.4, 150 mM NaCl, 3 mM EDTA, and 0.005% (v/v) surfactant P20) or MES-EP (20 mM MES pH 6.5, 150 mM NaCl, 3 mM EDTA, and 0.005% (v/v) surfactant P20) at a flow-rate of 40 μL min⁻¹. […] For the analysis of the Fc-domain 11^AB5 interaction, approximately 50 RU of a biotinylated IGF2:biotinylated ubiquitin mixture (1:8 proportion) was immobilized on the CM5-streptavidin chip. This interaction was also analysed by immobilizing the Fc-domain 11^AB5 and Fc-domain 11^AB5-RHH (or Fc-domain 11^I1572A as control) by Human Antibody Capture (monoclonal mouse anti-human IgG antibody immobilised on a CM5 chip by amine coupling, GE Healthcare) with and without human IgG1 Fc fragment (Bethyl Laboratories, UK) in the control flow cell. […] T200 BiaEvaluation software (GE Healthcare) was used to fit the resulting curves according to a 1:1 binding model. Steady state affinities were determined using the kinetic data, taking the response average at 5 seconds before injection end and for 5 seconds average.

[2] = target: T1, human IGF2^1-67 (mature insulin-like …); experiment: SPR steady state, biotin-IGF2 on chip, pH 7.4
Description: as §1, §2

T1 sequence (P01344 25-91): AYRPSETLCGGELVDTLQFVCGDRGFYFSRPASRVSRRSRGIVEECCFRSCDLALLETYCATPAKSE

Binder	Kd [1] [µM]	koff [1] [s⁻¹]	kon [1] [M⁻¹ s⁻¹]	Kd [2] [µM]
domain 11^AB5 S1600A (receptor, See m5) MKSNEHDDCQVTNPSTGHLFDLSSLSGRAGFTAAYAKGWGVYMSICGENENCPPGVGACFGQTRISVGKANKRLRYVDQVLQLVYKDGSPCPAKSGLSYKSVISFVCRPEAGPTNRPMLISLDKQTCTLFFSWHTPLACEQATECSV	0.0891	0.213	2.39e+06	0.0847
domain 11^AB5 P1599V (receptor, See m5; the asterisk is not explained) MKSNEHDDCQVTNPSTGHLFDLSSLSGRAGFTAAYAKGWGVYMSICGENENCPPGVGACFGQTRISVGKANKRLRYVDQVLQLVYKDGSPCVSKSGLSYKSVISFVCRPEAGPTNRPMLISLDKQTCTLFFSWHTPLACEQATECSV	> 0.1	> 0.1		> 0.1
domain 11^AB5 S1600V (receptor, See m5) MKSNEHDDCQVTNPSTGHLFDLSSLSGRAGFTAAYAKGWGVYMSICGENENCPPGVGACFGQTRISVGKANKRLRYVDQVLQLVYKDGSPCPVKSGLSYKSVISFVCRPEAGPTNRPMLISLDKQTCTLFFSWHTPLACEQATECSV	> 0.2	> 0.2		> 0.2
domain 11^AB5 S1600Y (receptor, See m5) MKSNEHDDCQVTNPSTGHLFDLSSLSGRAGFTAAYAKGWGVYMSICGENENCPPGVGACFGQTRISVGKANKRLRYVDQVLQLVYKDGSPCPYKSGLSYKSVISFVCRPEAGPTNRPMLISLDKQTCTLFFSWHTPLACEQATECSV	> 0.2	> 0.2		> 0.2
domain 11^AB5 K1631A (receptor, See m5; HI loop mutant) MKSNEHDDCQVTNPSTGHLFDLSSLSGRAGFTAAYAKGWGVYMSICGENENCPPGVGACFGQTRISVGKANKRLRYVDQVLQLVYKDGSPCPSKSGLSYKSVISFVCRPEAGPTNRPMLISLDAQTCTLFFSWHTPLACEQATECSV	> 0.2			> 0.2
domain 11^AB5 P1599G (receptor, See m5; the asterisk is not explained) MKSNEHDDCQVTNPSTGHLFDLSSLSGRAGFTAAYAKGWGVYMSICGENENCPPGVGACFGQTRISVGKANKRLRYVDQVLQLVYKDGSPCGSKSGLSYKSVISFVCRPEAGPTNRPMLISLDKQTCTLFFSWHTPLACEQATECSV	> 0.2	> 0.2		> 0.2
domain 11^AB5 P1599A (receptor, See m5; the asterisk is not explained) MKSNEHDDCQVTNPSTGHLFDLSSLSGRAGFTAAYAKGWGVYMSICGENENCPPGVGACFGQTRISVGKANKRLRYVDQVLQLVYKDGSPCASKSGLSYKSVISFVCRPEAGPTNRPMLISLDKQTCTLFFSWHTPLACEQATECSV	> 0.07	> 0.1		> 0.07
domain 11^AB5 S1600L (receptor, See m5) MKSNEHDDCQVTNPSTGHLFDLSSLSGRAGFTAAYAKGWGVYMSICGENENCPPGVGACFGQTRISVGKANKRLRYVDQVLQLVYKDGSPCPLKSGLSYKSVISFVCRPEAGPTNRPMLISLDKQTCTLFFSWHTPLACEQATECSV	> 0.2	> 0.2		> 0.2
domain 11^AB5 K1631E (receptor, See m5; HI loop mutant) MKSNEHDDCQVTNPSTGHLFDLSSLSGRAGFTAAYAKGWGVYMSICGENENCPPGVGACFGQTRISVGKANKRLRYVDQVLQLVYKDGSPCPSKSGLSYKSVISFVCRPEAGPTNRPMLISLDEQTCTLFFSWHTPLACEQATECSV	> 0.1	> 0.1		> 0.1

Now those with a lower Kd [1], led by results:

Kd [1] [µM]	koff [1] [s⁻¹]	kon [1] [M⁻¹ s⁻¹]	Kd [2] [µM]	Binder
0.0483	0.0397	790000	0.06	domain 11^AB5 L1604A (receptor, See m5) MKSNEHDDCQVTNPSTGHLFDLSSLSGRAGFTAAYAKGWGVYMSICGENENCPPGVGACFGQTRISVGKANKRLRYVDQVLQLVYKDGSPCPSKSGASYKSVISFVCRPEAGPTNRPMLISLDKQTCTLFFSWHTPLACEQATECSV
0.0398	0.0202	520000	0.0524	domain 11^AB5 Q1632E (receptor, See m5; HI loop mutant) MKSNEHDDCQVTNPSTGHLFDLSSLSGRAGFTAAYAKGWGVYMSICGENENCPPGVGACFGQTRISVGKANKRLRYVDQVLQLVYKDGSPCPSKSGLSYKSVISFVCRPEAGPTNRPMLISLDKETCTLFFSWHTPLACEQATECSV
0.0244	0.091	3.95e+06	0.0297	domain 11^AB5 S1600N (receptor, See m5) MKSNEHDDCQVTNPSTGHLFDLSSLSGRAGFTAAYAKGWGVYMSICGENENCPPGVGACFGQTRISVGKANKRLRYVDQVLQLVYKDGSPCPNKSGLSYKSVISFVCRPEAGPTNRPMLISLDKQTCTLFFSWHTPLACEQATECSV
0.0165	0.025	1.57e+06	0.0199	domain 11^AB5 S1602A (receptor, See m5) MKSNEHDDCQVTNPSTGHLFDLSSLSGRAGFTAAYAKGWGVYMSICGENENCPPGVGACFGQTRISVGKANKRLRYVDQVLQLVYKDGSPCPSKAGLSYKSVISFVCRPEAGPTNRPMLISLDKQTCTLFFSWHTPLACEQATECSV
0.0123	0.0867	7.18e+06	0.0135	domain 11^AB5 K1631R (receptor, See m5; HI loop mutant) MKSNEHDDCQVTNPSTGHLFDLSSLSGRAGFTAAYAKGWGVYMSICGENENCPPGVGACFGQTRISVGKANKRLRYVDQVLQLVYKDGSPCPSKSGLSYKSVISFVCRPEAGPTNRPMLISLDRQTCTLFFSWHTPLACEQATECSV
0.0111	0.0212	1.96e+06	0.0128	domain 11^AB5 Q1632K (receptor, See m5; HI loop mutant) MKSNEHDDCQVTNPSTGHLFDLSSLSGRAGFTAAYAKGWGVYMSICGENENCPPGVGACFGQTRISVGKANKRLRYVDQVLQLVYKDGSPCPSKSGLSYKSVISFVCRPEAGPTNRPMLISLDKKTCTLFFSWHTPLACEQATECSV
0.00869	0.0183	2.14e+06	0.0121	domain 11^AB5 G1603A (receptor, See m5) MKSNEHDDCQVTNPSTGHLFDLSSLSGRAGFTAAYAKGWGVYMSICGENENCPPGVGACFGQTRISVGKANKRLRYVDQVLQLVYKDGSPCPSKSALSYKSVISFVCRPEAGPTNRPMLISLDKQTCTLFFSWHTPLACEQATECSV
0.0068	0.022	3.26e+06	0.00851	domain 11^AB5 K1601A (receptor, See m5) MKSNEHDDCQVTNPSTGHLFDLSSLSGRAGFTAAYAKGWGVYMSICGENENCPPGVGACFGQTRISVGKANKRLRYVDQVLQLVYKDGSPCPSASGLSYKSVISFVCRPEAGPTNRPMLISLDKQTCTLFFSWHTPLACEQATECSV
0.00575	0.0175	3.18e+06	0.00934	domain 11^AB5 Q1632L (receptor, See m5; HI loop mutant) MKSNEHDDCQVTNPSTGHLFDLSSLSGRAGFTAAYAKGWGVYMSICGENENCPPGVGACFGQTRISVGKANKRLRYVDQVLQLVYKDGSPCPSKSGLSYKSVISFVCRPEAGPTNRPMLISLDKLTCTLFFSWHTPLACEQATECSV
0.00475	0.0112	2.38e+06	0.00793	domain 11^AB5 S1602N (receptor, See m5) MKSNEHDDCQVTNPSTGHLFDLSSLSGRAGFTAAYAKGWGVYMSICGENENCPPGVGACFGQTRISVGKANKRLRYVDQVLQLVYKDGSPCPSKNGLSYKSVISFVCRPEAGPTNRPMLISLDKQTCTLFFSWHTPLACEQATECSV
0.00376	0.0167	4.5e+06	0.00484	domain 11^AB5 Q1632A (receptor, See m5; HI loop mutant) MKSNEHDDCQVTNPSTGHLFDLSSLSGRAGFTAAYAKGWGVYMSICGENENCPPGVGACFGQTRISVGKANKRLRYVDQVLQLVYKDGSPCPSKSGLSYKSVISFVCRPEAGPTNRPMLISLDKATCTLFFSWHTPLACEQATECSV
0.00294	0.0034	1.18e+06	0.0122	domain 11^AB5 K1631W (receptor, See m5; HI loop mutant) MKSNEHDDCQVTNPSTGHLFDLSSLSGRAGFTAAYAKGWGVYMSICGENENCPPGVGACFGQTRISVGKANKRLRYVDQVLQLVYKDGSPCPSKSGLSYKSVISFVCRPEAGPTNRPMLISLDWQTCTLFFSWHTPLACEQATECSV
